We go through 8 molecules from patent US20180037904A1.

The target in data set [1] is Rubisco (Ribulose-1,5-bis-phosphate carboxylase/oxygenase) purified from Oryza sativa leaves (Oryza sativa) (UniProt P0C512). Put plainly: cell-based or functional assay.
In data set [2] the target is Rubisco from wheat (wheat) (UniProt P11383). Briefly: cell-based or functional assay.
For data set [3], the target named is Rubisco (Ribulose-1,5-bis-phosphate carboxylase/oxygenase) purified from Oryza sativa leaves, P0C512.

Where only a bound is given, the exact number is not on record here.

In data set [1], “leaf-extracted RCA from Oryza sativa (partially purified, alpha and beta isoforms) (from UniProt P93431 49-466; P93431 49-428) (enzyme)” registered a reduction in fraction of Rubisco activated at comparable temperatures of 80%.
As for “beta isoform of RCA extracted from wheat leaves (0.2 M KCl anion-exchange fraction) (enzyme)”, the activation of wheat Rubisco by leaf-extracted beta isoform at less than 34° C., relative to the rice RCA isoforms in data set [2] is > 2 fold.

B1: leaf-extracted RCA from Oryza sativa (partially purified, alpha and beta isoforms) (protein)
chain 1: KELDEGKQTDQDRWKGLAYDISDDQQDITRGKGFVDSLFQAPTGDGTHEAVLSSYEYLSQGLRTYDFDNTMGGFYIAPAFMDKLVVHISKNFMTLPNIKVPLILGIWGGKGQGKSFQCELVFAKMGINPIMMSAGELESGNAGEPAKLIRQRYREAADIIKKGKMCCLFINDLDAGAGRMGGTTQYTVNNQMVNATLMNIADNPTNVQLPGMYNKEDNPRVPIIVTGNDFSTLYAPLIRDGRMEKFYWAPTRDDRVGVCKGIFRTDNVPDEDIVKIVDSFPGQSIDFFGALRARVYDDEVRKWVSDTGVENIGKRLVNSREGPPEFEQPKMTIEKLMEYGYMLVKEQENVKRVQLAEQYLSEAALGDANSDAMKTGSFYGQGAQQAGNLPVPEGCTDPVAKNFDPTARSDDGSCLYTF
chain 2: KELDEGKQTDQDRWKGLAYDISDDQQDITRGKGFVDSLFQAPTGDGTHEAVLSSYEYLSQGLRTYDFDNTMGGFYIAPAFMDKLVVHISKNFMTLPNIKVPLILGIWGGKGQGKSFQCELVFAKMGINPIMMSAGELESGNAGEPAKLIRQRYREAADIIKKGKMCCLFINDLDAGAGRMGGTTQYTVNNQMVNATLMNIADNPTNVQLPGMYNKEDNPRVPIIVTGNDFSTLYAPLIRDGRMEKFYWAPTRDDRVGVCKGIFRTDNVPDEDIVKIVDSFPGQSIDFFGALRARVYDDEVRKWVSDTGVENIGKRLVNSREGPPEFEQPKMTIEKLMEYGYMLVKEQENVKRVQLAEQYLSEAALGDANSDAMKTGSFYGSAPSS
With B1, the “peak in RCA activation performance (temperature of maximal Rubisco activation)” value in data set [3] worked out at 29.9±0.5 °C for O. sativa.

B2: leaf-extracted RCA from Oryza australiensis (partially purified, alpha and beta isoforms) (protein)
chain 1: KELDEDKQTDQDKWKGLAYDISDDQQDITRGKGLVDSLFQAPMGDGTHEAVLSSYEYLSQGLKMLDNTMGGFYIAPAFMDKLVVHISKNFMALPNIKVPLILGIWGGKGQGKSFQCELVFSKMGINPIMMSAGELESGNAGEPAKLIRQRYREAADIIKKGKMCCLFINDLDAGAGRMGGTTQYTVNNQMVNATLMNIADNPTNVQLPGMYNKEDNPRVPIIVTGNDFSTLYAPLIRDGRMEKFYWAPTRDDRVGVCKGIFRTDNVPDEDIVKIVDSFPGQSIDFFGALRARVYDDEVRKWVSDTGVENIGKKLVNSREGPPEFEQPKMTIDKLMEYGHMLVREQENVKRVQLADKYLSEAALGDANSDAMKTGSFYGQGAQQGGNLPVPEGCTDPVAKNFDPTARSDDGSCLYTF
chain 2: KELDEDKQTDQDKWKGLAYDISDDQQDITRGKGLVDSLFQAPMGDGTHEAVLSSYEYLSQGLKMLDNTMGGFYIAPAFMDKLVVHISKNFMALPNIKVPLILGIWGGKGQGKSFQCELVFSKMGINPIMMSAGELESGNAGEPAKLIRQRYREAADIIKKGKMCCLFINDLDAGAGRMGGTTQYTVNNQMVNATLMNIADNPTNVQLPGMYNKEDNPRVPIIVTGNDFSTLYAPLIRDGRMEKFYWAPTRDDRVGVCKGIFRTDNVPDEDIVKIVDSFPGQSIDFFGALRARVYDDEVRKWVSDTGVENIGKKLVNSREGPPEFEQPKMTIDKLMEYGHMLVREQENVKRVQLADKYLSEAALGDANSDAMKTGSFYGAAPSS
As to B2, in data set [3], the “absolute rate of Rubisco activation at 42° C. relative to Os RCA” value was “at 42 °C Oa had an absolute rate of activity four-times that of Os”; the “drop in Rubisco activation activity at 42° C. relative to 30° C., RCA at 0.96 mg·mL^-1” value was “close to a 50% drop in activity at 42 °C relative to 30 °C”; the “fall in Rubisco activation activity at 42° C. relative to 30° C., RCA at 0.24 and 0.49 mg·mL^-1” value was “less than a 20% fall at concentrations of 0.24 and 0.49 mg·mL^-1”; the “peak in RCA activation performance (temperature of maximal Rubisco activation)” value came out at 33.0±0.3 °C for O. australiensis.

B3: recombinant Oryza sativa Rubisco activase (RCA), beta (short) isoform (protein)
chain: MAKELDEGKQTDQDRWKGLAYDISDDQQDITRGKGFVDSLFQAPTGDGTHEAVLSSYEYLSQGLRTYDFDNTMGGFYIAPAFMDKLVVHISKNFMTLPNIKVPLILGIWGGKGQGKSFQCELVFAKMGINPIMMSAGELESGNAGEPAKLIRQRYREAADIIKKGKMCCLFINDLDAGAGRMGGTTQYTVNNQMVNATLMNIADNPTNVQLPGMYNKEDNPRVPIIVTGNDFSTLYAPLIRDGRMEKFYWAPTRDDRVGVCKGIFRTDNVPDEDIVKIVDSFPGQSIDFFGALRARVYDDEVRKWVSDTGVENIGKRLVNSREGPPEFEQPKMTIEKLMEYGYMLVKEQENVKRVQLAEQYLSEAALGDANSDAMKTGSFYGSAPSS
As for B3, the “concentration-dependent specific activity of ATP hydrolysis” value was “specific activity of ATP hydrolysis falls at low RCA concentrations” and the “temperature stability of ATP hydrolysis” value was “both being heat stable, not losing activity until 40 °C”. The “Rubisco activation activity of recombinant RCA at 30 and 36° C.” value in data set [3] is listed as “the β isoform of RCAOs has higher activity than RCAOa”.

B4: recombinant Oryza australiensis Rubisco activase (RCA), beta (short) isoform (protein)
chain: MAKELDEDKQTDQDKWKGLAYDISDDQQDITRGKGLVDSLFQAPMGDGTHEAVLSSYEYLSQGLKMLDNTMGGFYIAPAFMDKLVVHISKNFMALPNIKVPLILGIWGGKGQGKSFQCELVFSKMGINPIMMSAGELESGNAGEPAKLIRQRYREAADIIKKGKMCCLFINDLDAGAGRMGGTTQYTVNNQMVNATLMNIADNPTNVQLPGMYNKEDNPRVPIIVTGNDFSTLYAPLIRDGRMEKFYWAPTRDDRVGVCKGIFRTDNVPDEDIVKIVDSFPGQSIDFFGALRARVYDDEVRKWVSDTGVENIGKKLVNSREGPPEFEQPKMTIDKLMEYGHMLVREQENVKRVQLADKYLSEAALGDANSDAMKTGSFYGAAPSS
B4: the “concentration-dependent specific activity of ATP hydrolysis” value was “specific activity of ATP hydrolysis falls at low RCA concentrations” and the “temperature stability of ATP hydrolysis” value is “both being heat stable, not losing activity until 40 °C”. Besides, the “Rubisco activation activity of recombinant RCA at 30 and 36° C.” value in data set [3] was “the β isoform of RCAOs has higher activity than RCAOa”.

B5: recombinant Oryza australiensis Rubisco activase (RCA), alpha (long) isoform (protein)
chain: MAKELDEDKQTDQDKWKGLAYDISDDQQDITRGKGLVDSLFQAPMGDGTHEAVLSSYEYLSQGLKMLDNTMGGFYIAPAFMDKLVVHISKNFMALPNIKVPLILGIWGGKGQGKSFQCELVFSKMGINPIMMSAGELESGNAGEPAKLIRQRYREAADIIKKGKMCCLFINDLDAGAGRMGGTTQYTVNNQMVNATLMNIADNPTNVQLPGMYNKEDNPRVPIIVTGNDFSTLYAPLIRDGRMEKFYWAPTRDDRVGVCKGIFRTDNVPDEDIVKIVDSFPGQSIDFFGALRARVYDDEVRKWVSDTGVENIGKKLVNSREGPPEFEQPKMTIDKLMEYGHMLVREQENVKRVQLADKYLSEAALGDANSDAMKTGSFYGQGAQQGGNLPVPEGCTDPVAKNFDPTARSDDGSCLYTF
B5: the “concentration-dependent specific activity of ATP hydrolysis” value is listed as “specific activity of ATP hydrolysis falls at low RCA concentrations” and the “temperature stability of ATP hydrolysis” value is “both being heat stable, not losing activity until 40 °C”. Further, the “Rubisco activation activity of recombinant RCA at 30 and 36° C.” value in data set [3] is “there is little difference in activity of the α isoform between the species”.

B6: recombinant Oryza sativa Rubisco activase (RCA), alpha (long) isoform (protein)
chain: MAKELDEGKQTDQDRWKGLAYDISDDQQDITRGKGFVDSLFQAPTGDGTHEAVLSSYEYLSQGLRTYDFDNTMGGFYIAPAFMDKLVVHISKNFMTLPNIKVPLILGIWGGKGQGKSFQCELVFAKMGINPIMMSAGELESGNAGEPAKLIRQRYREAADIIKKGKMCCLFINDLDAGAGRMGGTTQYTVNNQMVNATLMNIADNPTNVQLPGMYNKEDNPRVPIIVTGNDFSTLYAPLIRDGRMEKFYWAPTRDDRVGVCKGIFRTDNVPDEDIVKIVDSFPGQSIDFFGALRARVYDDEVRKWVSDTGVENIGKRLVNSREGPPEFEQPKMTIEKLMEYGYMLVKEQENVKRVQLAEQYLSEAALGDANSDAMKTGSFYGQGAQQAGNLPVPEGCTDPVAKNFDPTARSDDGSCLYTF
As for B6, the “concentration-dependent specific activity of ATP hydrolysis” value is “specific activity of ATP hydrolysis falls at low RCA concentrations” and the “temperature stability of ATP hydrolysis” value is “both being heat stable, not losing activity until 40 °C”. In addition, in data set [3], the “Rubisco activation activity of recombinant RCA at 30 and 36° C.” value was “there is little difference in activity of the α isoform between the species”.
